Reference: patent US20030175822A1

Key:
[1] = target: mu3 opiate receptor (human) (UniProt P35372); assay: displacement of [3H]-dihydromorphine, membrane suspension of human lung non-small cell carcinoma
[2] = target: mu3 opiate receptor (human) (UniProt P35372); assay: displacement of [3H]-dihydromorphine, membrane suspension of normal human lung
[3] = target: mu3 opiate receptor (human) (UniProt P35372); assay: displacement of [3H]-dihydromorphine, membrane suspension of human granulocytes

Measured: IC50

Chain of mu3 opiate receptor (human) (P35372 whole entry): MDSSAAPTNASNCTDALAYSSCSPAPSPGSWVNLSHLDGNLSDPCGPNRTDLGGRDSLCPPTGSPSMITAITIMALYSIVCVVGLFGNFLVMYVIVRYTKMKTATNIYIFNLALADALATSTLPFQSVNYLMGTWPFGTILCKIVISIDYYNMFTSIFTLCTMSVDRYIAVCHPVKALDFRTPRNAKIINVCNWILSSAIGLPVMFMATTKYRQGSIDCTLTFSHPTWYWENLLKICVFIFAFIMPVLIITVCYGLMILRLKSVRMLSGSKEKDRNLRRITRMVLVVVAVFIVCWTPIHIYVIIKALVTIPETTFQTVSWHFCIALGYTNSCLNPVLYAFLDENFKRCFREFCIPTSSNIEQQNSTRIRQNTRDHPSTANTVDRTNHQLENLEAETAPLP

(D-Ala^2, Leu^5)-enkephalin (from UniProt P01210 230-234) (peptide)
> 1000 nM: all assays above

(D-Pen^2, D-Pen^5)-enkephalin (peptide)
> 1000 nM: all assays above

Deltorphin (peptide)
> 1000 nM: all assays above

Dynorphin 1-17 (from UniProt P01213 207-223) (peptide)
> 1000 nM: all assays above
